Data set [1] addresses T1, AID-tagged CTCF protein (UniProt Q61164).
T1 construct: The AID tag was knocked-in at the endogenous Ctcf gene locus
The note with it: AID tag knocked-in at endogenous Ctcf locus; cited from earlier work.

Data set [2] concerns the target T2, AID-tagged CTCF protein (UniProt P93830+Q61164+Q7XVM8).
T2 construct: The AID tag was knocked-in at the endogenous Ctcf gene locus
The note with it: washout; cited from earlier work.

Data set [3] deals with T3, YY1 (Homo sapiens, UniProt P25490 P25490:1-414). Nature of the data set: competition; 100 nM competitor abrogated YY1-enhanced circularization of template, 20 C. The procedure: Reactions were incubated at 20° C. for 20 minutes to allow binding of YY1 to the DNA. For each timepoint 6 µL of the reaction was withdrawn and quenched in a total volume of 9 µL with a final concentration of 30 mM EDTA, 1×NEB loading dye (NEB, B7024S), 1 ug/µL of proteinase K, and heated at 65° C. for 5 minutes. Timepoint 0 was taken and then 600 units of T4 DNA ligase (NEB M0202) was added and the reaction was carried out at 20° C. Indicated timepoints were taken and then samples were run on a 4-20% TBE gradient gel for three hours at 120 V. The gel was stained with SYBR Gold (Life Technologies S11494) and imaged with a CCD camera.
T3 sequence (P25490 whole entry, one chain of several): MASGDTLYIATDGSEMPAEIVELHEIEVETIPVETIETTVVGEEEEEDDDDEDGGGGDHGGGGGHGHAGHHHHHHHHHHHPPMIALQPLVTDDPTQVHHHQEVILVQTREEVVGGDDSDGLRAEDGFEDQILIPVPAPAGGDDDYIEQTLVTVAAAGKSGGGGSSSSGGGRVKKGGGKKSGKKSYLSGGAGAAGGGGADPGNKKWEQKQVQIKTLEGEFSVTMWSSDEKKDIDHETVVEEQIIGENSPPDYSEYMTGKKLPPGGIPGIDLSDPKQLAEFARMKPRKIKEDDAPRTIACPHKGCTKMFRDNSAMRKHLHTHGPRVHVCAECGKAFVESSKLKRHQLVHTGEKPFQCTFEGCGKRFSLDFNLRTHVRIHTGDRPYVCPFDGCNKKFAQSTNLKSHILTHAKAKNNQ

Data set [4] concerns the target T4, FLAG-tagged YY1 and HA-tagged YY1 (Homo sapiens, UniProt P25490).
T4 construct: expressed in transfected cells; host or cells: V6.5 mESCs, transient transfection, nuclear extract
Briefly: Co-immunoprecipitation of FLAG-tagged and HA-tagged YY1 from nuclear extracts. The class given is binding, mouse. The note with it: nuclear extract treated prior to immunoprecipitation. As for the experimental part:
V6.5 mESCs were transfected with pcDNA3 FLAG YY1 and pcDNA3 […] using Lipofectamine 3000 (Life Technologies #L3000001) according to the manufacturer's instructions. Briefly, cells were split and 8 million cells were plated onto a gelatinized 15 cm plate. 7.5 μg of each plasmid was mixed with 30 μL P3000 reagent and 75 μL Lipofectamine 3000 reagent (Life Technologies #L3000001) in 1250 μL of DMEM (Life technologies #11995-073). After ˜12-16 hours media was changed.
Cells were harvested 48 hours after transfection by washing twice with ice-cold PBS and collected by scraping in ice-cold PBS. Harvested cells were centrifuged at 1,000 rcf for 3 minutes to pellet cells. Supernatant was discarded and cell pellets were flash frozen and stored at −80° C. until ready to prepare nuclear extract. For each 15 cm plate of cells, frozen cell pellets were resuspended in 5 mL of ice-cold hypotonic lysis buffer (20 mM HEPES-KOH pH 7.5, 20% glycerol, 10 mM NaCl, 0.1% Triton X-100, 1.5 mM MgCl2, 0.5 mM DTT and protease inhibitor (Roche, 11697498001)) and incubated on ice for 10 minutes to extract nuclei. Nuclei were pelleted by centrifugation at 14,000 rcf for 10 minutes at 4° C. […] Protein concentration of extracts was quantified by BCA assay (Thermo Scientific, 23225) and protein concentration was adjusted to 400 μg/mL by addition of appropriate volume of 1:2 nuclear extraction buffer:dilution buffer. […]

In data set [5] the target is T3, YY1. Nature of the data set: EMSA; 20 fmol probe, 2 ug YY1, 5 mM MgCl2, 0.1 mM ZnCl2, poly dIdC, RT; abolished by 200-fold cold competitor. The note with it: label: 5' biotin. As for the experimental part: To generate the biotin labeled probe, 30-nucleotide-long 5' biotinylated single stranded oligonucleotides (IDT) were annealed in 10 mM Tris pH 7.5, 50 mM NaCl, and 1 mM EDTA at a 50 uM concentration. The same protocol was used to generate the cold competitor. The probe was serially diluted to a concentration of 10 fmol/4 and cold competitor to a concentration of 2 pmol/µL. 2 µL of diluted probe and cold competitor were used for each binding reaction for a final amount of 20 fmol labeled probe and 4 pmol cold competitor (200 fold excess) in each reaction.
Binding reactions were set-up in a 20 µL volume containing 1× Binding Buffer (10 mM Tris, 50 mM KCl, 1 mM DTT; pH 7.5), 2.5% Glycerol, 5 mM MgCl2, 50 ng/4 Poly dl dC, 0.05% Np-40, 0.1 mM ZnCl2, 10 mM Hepes, and 2 ug of recombinant YY1 protein. Binding reactions were pre-incubated for 20 mins at room temperature with or without the cold competitor. Labeled probe was then added to binding reactions and incubated for 80 minutes at room temperature. […] The DNA was then crosslinked to the membrane by placing the membrane on a Dark Reader Transilluminator for 15 mins. The membrane was allowed to air dry at room temperature overnight and chemiluminescence detected the following day. […]

T2 sequence (Q61164+P93830 fused): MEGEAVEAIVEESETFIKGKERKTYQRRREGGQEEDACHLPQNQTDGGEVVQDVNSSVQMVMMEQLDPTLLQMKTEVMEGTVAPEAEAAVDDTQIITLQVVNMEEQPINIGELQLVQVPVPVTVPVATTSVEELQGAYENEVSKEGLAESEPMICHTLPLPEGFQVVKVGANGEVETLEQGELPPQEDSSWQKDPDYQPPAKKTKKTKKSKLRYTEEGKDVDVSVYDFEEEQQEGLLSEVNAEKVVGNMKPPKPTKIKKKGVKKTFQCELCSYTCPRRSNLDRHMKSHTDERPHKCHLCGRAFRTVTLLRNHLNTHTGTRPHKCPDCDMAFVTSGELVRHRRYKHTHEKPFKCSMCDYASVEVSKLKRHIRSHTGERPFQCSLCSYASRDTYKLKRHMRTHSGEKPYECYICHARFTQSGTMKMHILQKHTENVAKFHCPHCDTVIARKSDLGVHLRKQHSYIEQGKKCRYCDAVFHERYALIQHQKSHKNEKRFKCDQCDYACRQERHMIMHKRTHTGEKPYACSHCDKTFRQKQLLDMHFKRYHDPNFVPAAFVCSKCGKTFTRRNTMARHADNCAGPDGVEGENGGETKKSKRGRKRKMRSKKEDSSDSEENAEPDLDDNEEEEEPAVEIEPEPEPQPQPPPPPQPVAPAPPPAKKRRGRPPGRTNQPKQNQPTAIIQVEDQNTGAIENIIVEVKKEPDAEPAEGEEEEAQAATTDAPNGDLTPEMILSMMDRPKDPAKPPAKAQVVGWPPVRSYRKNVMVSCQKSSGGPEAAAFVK
T2 sequence (Q7XVM8 whole entry): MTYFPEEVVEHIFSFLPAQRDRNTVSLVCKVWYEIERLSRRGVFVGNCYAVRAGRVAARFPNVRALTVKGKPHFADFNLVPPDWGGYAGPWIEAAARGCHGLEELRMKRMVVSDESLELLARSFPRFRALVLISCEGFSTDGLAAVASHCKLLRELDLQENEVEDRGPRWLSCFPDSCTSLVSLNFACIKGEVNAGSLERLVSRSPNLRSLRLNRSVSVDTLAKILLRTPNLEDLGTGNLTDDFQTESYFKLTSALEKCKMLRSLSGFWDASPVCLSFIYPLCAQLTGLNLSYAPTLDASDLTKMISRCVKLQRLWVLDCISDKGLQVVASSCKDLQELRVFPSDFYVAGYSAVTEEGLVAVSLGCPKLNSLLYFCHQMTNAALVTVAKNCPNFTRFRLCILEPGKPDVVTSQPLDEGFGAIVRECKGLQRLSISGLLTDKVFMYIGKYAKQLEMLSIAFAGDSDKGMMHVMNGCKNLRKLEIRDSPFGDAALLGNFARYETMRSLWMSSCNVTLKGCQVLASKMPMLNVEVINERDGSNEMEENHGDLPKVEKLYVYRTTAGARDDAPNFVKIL
T2 sequence (Q9WTX5 whole entry partner): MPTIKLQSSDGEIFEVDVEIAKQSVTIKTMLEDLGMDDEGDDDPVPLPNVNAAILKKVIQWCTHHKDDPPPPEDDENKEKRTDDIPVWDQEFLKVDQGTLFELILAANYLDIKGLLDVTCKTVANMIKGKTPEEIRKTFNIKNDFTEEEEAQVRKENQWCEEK
T1 sequence (Q61164+P93830 fused): as the sequence (Q61164+P93830 fused) above
T1 sequence (Q7XVM8 whole entry, further chain): as the sequence (Q7XVM8 whole entry) above
T1 sequence (Q9WTX5 whole entry partner): as the sequence (Q9WTX5 whole entry partner) above
T4 sequence (P25490 whole entry): as the sequence (P25490 whole entry, one chain of several) above
T4 sequence (P25490 whole entry): as the sequence (P25490 whole entry, one chain of several) above

As to `O=C(O)Cc1c[nH]c2ccccc12` [auxin], in data set [1], the CTCF protein degradation result is given as “proteasome-mediated degradation”. Further, the “washout time allowing recovery of CTCF protein” value in data set [2] is 2 days.

B1: competitor DNA with YY1 consensus sites (dsDNA)
DNA 1: GAGCAACAACAACAACGAACCGGTTCGACCTCCCCGGCCATCTTTCGACCTCCCCGGCCATCTTTCGACCTCCCCGGCCATCTTTCGACCTCCCCGGCCATCTTTCGACCTCCCCGGCCATCTTTCGACCTCCCCGGCCATCTTTCGACCTCCCCGGCCATCTTTCGACCTCCCGTCGACAGAGGCAGCAAAAGCCAGA
DNA 2: TCTGGCTTTTGCTGCCTCTGTCGACGGGAGGTCGAAAGATGGCCGGGGAGGTCGAAAGATGGCCGGGGAGGTCGAAAGATGGCCGGGGAGGTCGAAAGATGGCCGGGGAGGTCGAAAGATGGCCGGGGAGGTCGAAAGATGGCCGGGGAGGTCGAAAGATGGCCGGGGAGGTCGAACCGGTTCGTTGTTGTTGTTGCTC
For B1, the binding result in data set [3] is “binds”.

B2: RNase A: RNase A (Sigma, R4642) used to treat nuclear extract (protein, UniProt P61823 27-150, looked up)
Ribonuclease pancreatic: KETAAAKFERQHMDSSTSAASSSNYCNQMMKSRNLTKDRCKPVNTFVHESLADVQAVCSQKNVACKNGQTNCYQSYSTMSITDCRETGSSKYPNCAYKTTQANKHIIVACEGNPYVPVHFDASV
Regarding B2, the “reduction in the amount of co-immunoprecipitated YY1 partner protein” value in data set [4] is around 60%.

B3: YY1 EMSA probe (dsDNA)
DNA 1: TCGCTCCCCGGCCATCTTGGCGGCTGGTGT
DNA 2: ACACCAGCCGCCAAGATGGCCGGGGAGCGA
For the molecule B3, in data set [5], the binding result is “binds”.
